Assay results as given in patent US20110195911A1, “SYNTHETIC ANALOGS OF THE JUXTAMEMBRANE DOMAIN OF IGF1R AND USES THEREOF” (THE UNITED STATES OF AMERICA,AS REPRESENTED BY THE …, priority 2008, published 2011).
The star is where a group is joined. Palmitoyl = CCCCCCCCCCCCCCCC(=O)*

B1: peptide 11 (Pal-HRKRNNSRLGNGV-NH2) (peptide)
peptide: Palmitoyl-HRKRNNSRLGNGV-NH2
SMILES: CCCCCCCCCCCCCCCC(=O)N[C@@H](Cc1c[nH]cn1)C(=O)N[C@@H](CCCNC(=N)N)C(=O)N[C@@H](CCCCN)C(=O)N[C@@H](CCCNC(=N)N)C(=O)N[C@@H](CC(N)=O)C(=O)N[C@@H](CC(N)=O)C(=O)N[C@@H](CO)C(=O)N[C@@H](CCCNC(=N)N)C(=O)N[C@@H](CC(C)C)C(=O)NCC(=O)N[C@@H](CC(N)=O)C(=O)NCC(=O)N[C@H](C(N)=O)C(C)C
B2: peptide 10 (Pal-HRKRNNSRLGNGVL-NH2) (peptide)
peptide: Palmitoyl-HRKRNNSRLGNGVL-NH2
SMILES: CCCCCCCCCCCCCCCC(=O)N[C@@H](Cc1c[nH]cn1)C(=O)N[C@@H](CCCNC(=N)N)C(=O)N[C@@H](CCCCN)C(=O)N[C@@H](CCCNC(=N)N)C(=O)N[C@@H](CC(N)=O)C(=O)N[C@@H](CC(N)=O)C(=O)N[C@@H](CO)C(=O)N[C@@H](CCCNC(=N)N)C(=O)N[C@@H](CC(C)C)C(=O)NCC(=O)N[C@@H](CC(N)=O)C(=O)NCC(=O)N[C@H](C(=O)N[C@@H](CC(C)C)C(N)=O)C(C)C
B3: peptide 17 (Pal-NSRLGNGVLY-NH2) (peptide)
peptide: Palmitoyl-NSRLGNGVLY-NH2
SMILES: CCCCCCCCCCCCCCCC(=O)N[C@@H](CC(N)=O)C(=O)N[C@@H](CO)C(=O)N[C@@H](CCCNC(=N)N)C(=O)N[C@@H](CC(C)C)C(=O)NCC(=O)N[C@@H](CC(N)=O)C(=O)NCC(=O)N[C@H](C(=O)N[C@@H](CC(C)C)C(=O)N[C@@H](Cc1ccc(O)cc1)C(N)=O)C(C)C
B4: peptide 16 (Pal-RNNSRLGNGVLY-NH2) (peptide)
peptide: Palmitoyl-RNNSRLGNGVLY-NH2
SMILES: CCCCCCCCCCCCCCCC(=O)N[C@@H](CCCNC(=N)N)C(=O)N[C@@H](CC(N)=O)C(=O)N[C@@H](CC(N)=O)C(=O)N[C@@H](CO)C(=O)N[C@@H](CCCNC(=N)N)C(=O)N[C@@H](CC(C)C)C(=O)NCC(=O)N[C@@H](CC(N)=O)C(=O)NCC(=O)N[C@H](C(=O)N[C@@H](CC(C)C)C(=O)N[C@@H](Cc1ccc(O)cc1)C(N)=O)C(C)C
B5: peptide 12 (Pal-RKRNNSRLGNGVLYASVN-NH2) (peptide)
peptide: Palmitoyl-RKRNNSRLGNGVLYASVN-NH2
SMILES: CCCCCCCCCCCCCCCC(=O)N[C@@H](CCCNC(=N)N)C(=O)N[C@@H](CCCCN)C(=O)N[C@@H](CCCNC(=N)N)C(=O)N[C@@H](CC(N)=O)C(=O)N[C@@H](CC(N)=O)C(=O)N[C@@H](CO)C(=O)N[C@@H](CCCNC(=N)N)C(=O)N[C@@H](CC(C)C)C(=O)NCC(=O)N[C@@H](CC(N)=O)C(=O)NCC(=O)N[C@H](C(=O)N[C@@H](CC(C)C)C(=O)N[C@@H](Cc1ccc(O)cc1)C(=O)N[C@@H](C)C(=O)N[C@@H](CO)C(=O)N[C@H](C(=O)N[C@@H](CC(N)=O)C(N)=O)C(C)C)C(C)C
B6: peptide 14 (Pal-RNNSRLGNGVLYASVN-NH2) (peptide)
peptide: Palmitoyl-RNNSRLGNGVLYASVN-NH2
SMILES: CCCCCCCCCCCCCCCC(=O)N[C@@H](CCCNC(=N)N)C(=O)N[C@@H](CC(N)=O)C(=O)N[C@@H](CC(N)=O)C(=O)N[C@@H](CO)C(=O)N[C@@H](CCCNC(=N)N)C(=O)N[C@@H](CC(C)C)C(=O)NCC(=O)N[C@@H](CC(N)=O)C(=O)NCC(=O)N[C@H](C(=O)N[C@@H](CC(C)C)C(=O)N[C@@H](Cc1ccc(O)cc1)C(=O)N[C@@H](C)C(=O)N[C@@H](CO)C(=O)N[C@H](C(=O)N[C@@H](CC(N)=O)C(N)=O)C(C)C)C(C)C
B7: peptide 15 (Pal-NNSRLGNGVLY-NH2) (peptide)
peptide: Palmitoyl-NNSRLGNGVLY-NH2
SMILES: CCCCCCCCCCCCCCCC(=O)N[C@@H](CC(N)=O)C(=O)N[C@@H](CC(N)=O)C(=O)N[C@@H](CO)C(=O)N[C@@H](CCCNC(=N)N)C(=O)N[C@@H](CC(C)C)C(=O)NCC(=O)N[C@@H](CC(N)=O)C(=O)NCC(=O)N[C@H](C(=O)N[C@@H](CC(C)C)C(=O)N[C@@H](Cc1ccc(O)cc1)C(N)=O)C(C)C
B8: peptide 9 (Pal-HRKRNNSRLGNGVLY-NH2) (peptide)
peptide: Palmitoyl-HRKRNNSRLGNGVLY-NH2
SMILES: CCCCCCCCCCCCCCCC(=O)N[C@@H](Cc1c[nH]cn1)C(=O)N[C@@H](CCCNC(=N)N)C(=O)N[C@@H](CCCCN)C(=O)N[C@@H](CCCNC(=N)N)C(=O)N[C@@H](CC(N)=O)C(=O)N[C@@H](CC(N)=O)C(=O)N[C@@H](CO)C(=O)N[C@@H](CCCNC(=N)N)C(=O)N[C@@H](CC(C)C)C(=O)NCC(=O)N[C@@H](CC(N)=O)C(=O)NCC(=O)N[C@H](C(=O)N[C@@H](CC(C)C)C(=O)N[C@@H](Cc1ccc(O)cc1)C(N)=O)C(C)C
B9: peptide 19 (Pal-SRLGNGVLY-NH2) (peptide)
peptide: Palmitoyl-SRLGNGVLY-NH2
SMILES: CCCCCCCCCCCCCCCC(=O)N[C@@H](CO)C(=O)N[C@@H](CCCNC(=N)N)C(=O)N[C@@H](CC(C)C)C(=O)NCC(=O)N[C@@H](CC(N)=O)C(=O)NCC(=O)N[C@H](C(=O)N[C@@H](CC(C)C)C(=O)N[C@@H](Cc1ccc(O)cc1)C(N)=O)C(C)C
B10: peptide 2 (Pal-HRKRNNSRLG-NH2) (peptide)
peptide: Palmitoyl-HRKRNNSRLG-NH2
SMILES: CCCCCCCCCCCCCCCC(=O)N[C@@H](Cc1c[nH]cn1)C(=O)N[C@@H](CCCNC(=N)N)C(=O)N[C@@H](CCCCN)C(=O)N[C@@H](CCCNC(=N)N)C(=O)N[C@@H](CC(N)=O)C(=O)N[C@@H](CC(N)=O)C(=O)N[C@@H](CO)C(=O)N[C@@H](CCCNC(=N)N)C(=O)N[C@@H](CC(C)C)C(=O)NCC(N)=O
B11: peptide 24 (Pal-VFHRKRNNSRLGNGVLYASVN-NH2) (peptide)
peptide: Palmitoyl-VFHRKRNNSRLGNGVLYASVN-NH2
SMILES: CCCCCCCCCCCCCCCC(=O)N[C@H](C(=O)N[C@@H](Cc1ccccc1)C(=O)N[C@@H](Cc1c[nH]cn1)C(=O)N[C@@H](CCCNC(=N)N)C(=O)N[C@@H](CCCCN)C(=O)N[C@@H](CCCNC(=N)N)C(=O)N[C@@H](CC(N)=O)C(=O)N[C@@H](CC(N)=O)C(=O)N[C@@H](CO)C(=O)N[C@@H](CCCNC(=N)N)C(=O)N[C@@H](CC(C)C)C(=O)NCC(=O)N[C@@H](CC(N)=O)C(=O)NCC(=O)N[C@H](C(=O)N[C@@H](CC(C)C)C(=O)N[C@@H](Cc1ccc(O)cc1)C(=O)N[C@@H](C)C(=O)N[C@@H](CO)C(=O)N[C@H](C(=O)N[C@@H](CC(N)=O)C(N)=O)C(C)C)C(C)C)C(C)C
B12: peptide 8 (Pal-HRKRNNSRLGNGVLYA-NH2) (peptide)
peptide: Palmitoyl-HRKRNNSRLGNGVLYA-NH2
SMILES: CCCCCCCCCCCCCCCC(=O)N[C@@H](Cc1c[nH]cn1)C(=O)N[C@@H](CCCNC(=N)N)C(=O)N[C@@H](CCCCN)C(=O)N[C@@H](CCCNC(=N)N)C(=O)N[C@@H](CC(N)=O)C(=O)N[C@@H](CC(N)=O)C(=O)N[C@@H](CO)C(=O)N[C@@H](CCCNC(=N)N)C(=O)N[C@@H](CC(C)C)C(=O)NCC(=O)N[C@@H](CC(N)=O)C(=O)NCC(=O)N[C@H](C(=O)N[C@@H](CC(C)C)C(=O)N[C@@H](Cc1ccc(O)cc1)C(=O)N[C@@H](C)C(N)=O)C(C)C
B13: peptide 27 (Pal-KRNNSRLGNGVLY-NH2) (peptide)
peptide: Palmitoyl-KRNNSRLGNGVLY-NH2
SMILES: CCCCCCCCCCCCCCCC(=O)N[C@@H](CCCCN)C(=O)N[C@@H](CCCNC(=N)N)C(=O)N[C@@H](CC(N)=O)C(=O)N[C@@H](CC(N)=O)C(=O)N[C@@H](CO)C(=O)N[C@@H](CCCNC(=N)N)C(=O)N[C@@H](CC(C)C)C(=O)NCC(=O)N[C@@H](CC(N)=O)C(=O)NCC(=O)N[C@H](C(=O)N[C@@H](CC(C)C)C(=O)N[C@@H](Cc1ccc(O)cc1)C(N)=O)C(C)C
B14: peptide 7 (Pal-HRKRNNSRLGNGVLYAS-NH2) (peptide)
peptide: Palmitoyl-HRKRNNSRLGNGVLYAS-NH2
SMILES: CCCCCCCCCCCCCCCC(=O)N[C@@H](Cc1c[nH]cn1)C(=O)N[C@@H](CCCNC(=N)N)C(=O)N[C@@H](CCCCN)C(=O)N[C@@H](CCCNC(=N)N)C(=O)N[C@@H](CC(N)=O)C(=O)N[C@@H](CC(N)=O)C(=O)N[C@@H](CO)C(=O)N[C@@H](CCCNC(=N)N)C(=O)N[C@@H](CC(C)C)C(=O)NCC(=O)N[C@@H](CC(N)=O)C(=O)NCC(=O)N[C@H](C(=O)N[C@@H](CC(C)C)C(=O)N[C@@H](Cc1ccc(O)cc1)C(=O)N[C@@H](C)C(=O)N[C@@H](CO)C(N)=O)C(C)C
B15: peptide 13 (Pal-KRNNSRLGNGVLYASVN-NH2) (peptide)
peptide: Palmitoyl-KRNNSRLGNGVLYASVN-NH2
SMILES: CCCCCCCCCCCCCCCC(=O)N[C@@H](CCCCN)C(=O)N[C@@H](CCCNC(=N)N)C(=O)N[C@@H](CC(N)=O)C(=O)N[C@@H](CC(N)=O)C(=O)N[C@@H](CO)C(=O)N[C@@H](CCCNC(=N)N)C(=O)N[C@@H](CC(C)C)C(=O)NCC(=O)N[C@@H](CC(N)=O)C(=O)NCC(=O)N[C@H](C(=O)N[C@@H](CC(C)C)C(=O)N[C@@H](Cc1ccc(O)cc1)C(=O)N[C@@H](C)C(=O)N[C@@H](CO)C(=O)N[C@H](C(=O)N[C@@H](CC(N)=O)C(N)=O)C(C)C)C(C)C

The binders below were run against Insulin-like growth factor 1 receptor (IGF1R) (UniProt P08069 31-1367, limits assumed) (assay: cell-based or functional assay).
Chain of Insulin-like growth factor 1 receptor (IGF1R) (P08069 31-1367 limits assumed): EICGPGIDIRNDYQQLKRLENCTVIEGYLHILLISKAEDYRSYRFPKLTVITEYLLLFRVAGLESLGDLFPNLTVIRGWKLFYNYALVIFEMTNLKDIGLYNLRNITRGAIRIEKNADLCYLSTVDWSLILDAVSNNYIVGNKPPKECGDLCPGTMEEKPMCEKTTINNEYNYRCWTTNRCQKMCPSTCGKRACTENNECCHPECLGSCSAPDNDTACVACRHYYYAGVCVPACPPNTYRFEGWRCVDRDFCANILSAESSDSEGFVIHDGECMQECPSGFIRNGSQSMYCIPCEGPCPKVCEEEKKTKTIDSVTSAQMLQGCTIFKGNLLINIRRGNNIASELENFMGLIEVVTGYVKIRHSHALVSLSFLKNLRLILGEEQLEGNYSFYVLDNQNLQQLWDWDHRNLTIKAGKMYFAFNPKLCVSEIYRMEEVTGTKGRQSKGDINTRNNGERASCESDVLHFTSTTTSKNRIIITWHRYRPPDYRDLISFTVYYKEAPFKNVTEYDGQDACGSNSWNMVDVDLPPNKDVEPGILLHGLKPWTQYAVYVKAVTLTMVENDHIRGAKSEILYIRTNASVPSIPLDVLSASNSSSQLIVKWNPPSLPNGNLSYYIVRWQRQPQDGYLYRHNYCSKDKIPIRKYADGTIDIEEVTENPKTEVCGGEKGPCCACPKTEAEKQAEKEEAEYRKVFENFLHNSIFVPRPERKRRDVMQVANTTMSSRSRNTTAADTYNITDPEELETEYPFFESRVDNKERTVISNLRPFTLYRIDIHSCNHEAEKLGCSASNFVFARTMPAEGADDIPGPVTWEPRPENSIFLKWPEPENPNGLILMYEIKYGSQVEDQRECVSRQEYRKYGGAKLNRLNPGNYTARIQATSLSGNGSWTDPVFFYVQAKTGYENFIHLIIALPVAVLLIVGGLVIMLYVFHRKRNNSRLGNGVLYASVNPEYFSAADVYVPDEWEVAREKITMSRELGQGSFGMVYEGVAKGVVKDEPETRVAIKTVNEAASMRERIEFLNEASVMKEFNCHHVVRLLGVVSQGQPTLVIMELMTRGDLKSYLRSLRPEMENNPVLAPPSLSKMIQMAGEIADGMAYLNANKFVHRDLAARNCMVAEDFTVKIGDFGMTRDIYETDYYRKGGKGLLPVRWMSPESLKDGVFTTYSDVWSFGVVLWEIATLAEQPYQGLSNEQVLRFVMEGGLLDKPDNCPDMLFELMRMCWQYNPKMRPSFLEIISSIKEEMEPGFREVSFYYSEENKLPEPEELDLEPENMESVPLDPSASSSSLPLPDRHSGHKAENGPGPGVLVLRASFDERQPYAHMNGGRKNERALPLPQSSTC

Row | Binder | GI50 (µM), MTT assay, MCF-7 cells [µM] | TGI (µM), MTT assay, MCF-7 cells [µM]
1 | B1 | 2.5 | > 5
2 | B2 | 1.8 | > 5
3 | B3 | 0.2 | 1.5
4 | B4 | 0.07 | 0.5
5 | B5 | 1.2 | 2.7
6 | B6 | 0.1 | 0.4
7 | B7 | 0.1 | 1.5
8 | B8 | 1.65 | > 5
9 | B9 | 0.15 | 2
10 | B10 | 1.3 | > 5
11 | B11 | 0.1 | 1.1
12 | B12 | 1.4 | > 5
13 | B13 | 1.1 | 2.5
14 | B14 | 1.45 | 4.1
15 | B15 | 0.08 | 0.5
